Test in all cases: SEC-MALS
The target in assay [1] is λ Ea22(1–182) (bacteriophage λ).
In assay [2] the target is λ Ea22(93–182) (bacteriophage λ).
In assay [3] the target is λ Ea22(102–182) (bacteriophage λ).
Assay [4] addresses λ Ea22(109–182) (bacteriophage λ).
Assay [5] concerns the target φ24B Ea22(135–261) (bacteriophage φ24B).
Assay [6] has the same target. The source holds these as a separate data set.
The target of assay [7] is φP27 Ea22(1–315) (bacteriophage φP27).

What is called stoichiometry N is a count of units in the complex or per binding partner.

Like-named read-outs stand apart in the source and are kept apart here.

In assay [1], λ Ea22(1–182) (natural protein) registered a stoichiometry N of 4.

λ Ea22(93–182) (domain or fragment): the stoichiometry N in assay [2] was 2.

Regarding λ Ea22(102–182) (domain or fragment), the stoichiometry N in assay [3] worked out at 2.

In the case of λ Ea22(109–182) (domain or fragment), the stoichiometry N in assay [4] was found to be 2.

Consider φ24B Ea22(135–261) (domain or fragment), for which the results for the stoichiometry N in assay [5] and in assay [6] were 4 and 2, respectively.

φP27 Ea22(1–315) (natural protein): the stoichiometry N in assay [7] worked out at 4.

Source of the values: publication PMC7271347.
